Blank lines part the entries; values can stand above or below the molecule they belong to. No end group written: not given here.
Experiments:
RILPL2 (Mus musculus) = RILPL2 (Mus musculus) (UniProt Q99LE1); conditions: cited from earlier work
[1] = biological target: the molecule itself; test: SEC-MALS; static light scattering coupled to gel filtration, Superdex 200 (10/300); full-length RILPL2 with uncleaved polyhistidine tag, 500 μL at 1 mg/mL
[2] = biological target: T1, His6-tagged RILPL2 (full length, 1-211) (Homo sapiens (Human), UniProt Q969X0); test: Ni-agarose pull-down (SDS-PAGE, Coomassie)
T1 chain: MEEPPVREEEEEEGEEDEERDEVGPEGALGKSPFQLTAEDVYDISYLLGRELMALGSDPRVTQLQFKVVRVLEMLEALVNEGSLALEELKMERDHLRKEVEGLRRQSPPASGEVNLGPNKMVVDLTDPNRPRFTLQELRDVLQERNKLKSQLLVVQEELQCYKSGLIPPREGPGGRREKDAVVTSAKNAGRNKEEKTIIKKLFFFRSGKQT

[3] = biological target: T72 phosphorylated Rab8a(GTP), residues 1-181, Q67L (UniProt P61006); test: ITC; His6-RILPL2 129-165 (400-600 μM) injected into Rab8a or pRab8a 1-181 (40-60 μM); 10 mM Tris-HCl, 300 mM NaCl, 5 mM MgCl2, 20 mM imidazole, 1 mM DTT; triplicate
[4] = biological target: the molecule itself; test: crystal structure; pRab8(Q67L):His6-RL2 complex, 1:1 molar ratio of protein:peptide, 12 mg/mL; 100 mM HEPES pH 7, 10% PEG4,000, 10% 2-propanol; 1.8 Å

Chain of T72 phosphorylated Rab8a(GTP), residues 1-181, Q67L (P61006 1-181 Q67L): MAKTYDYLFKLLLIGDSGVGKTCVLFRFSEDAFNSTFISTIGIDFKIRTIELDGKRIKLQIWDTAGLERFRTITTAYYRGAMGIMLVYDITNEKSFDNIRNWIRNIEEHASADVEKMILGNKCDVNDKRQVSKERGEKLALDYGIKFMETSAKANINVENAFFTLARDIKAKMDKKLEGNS
Chain of RILPL2 (Mus musculus) (Q99LE1 whole entry): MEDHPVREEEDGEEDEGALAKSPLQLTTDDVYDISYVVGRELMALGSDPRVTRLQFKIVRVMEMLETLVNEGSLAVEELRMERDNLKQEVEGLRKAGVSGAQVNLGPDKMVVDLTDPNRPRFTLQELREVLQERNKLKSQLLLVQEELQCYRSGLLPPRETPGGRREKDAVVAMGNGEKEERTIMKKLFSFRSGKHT

Molecule: Myosin Va (from UniProt Q99104)
- Kd (RILPL2 (Mus musculus)): 300 nM

B1: His6-tagged RILPL2 (full length, 1-211) (natural protein, human, UniProt Q969X0 1-211, looked up)
chain: MEEPPVREEEEEEGEEDEERDEVGPEGALGKSPFQLTAEDVYDISYLLGRELMALGSDPRVTQLQFKVVRVLEMLEALVNEGSLALEELKMERDHLRKEVEGLRRQSPPASGEVNLGPNKMVVDLTDPNRPRFTLQELRDVLQERNKLKSQLLVVQEELQCYKSGLIPPREGPGGRREKDAVVTSAKNAGRNKEEKTIIKKLFFFRSGKQT
notes: RILPL2, human, full length (1-211), cDNA in pET15b; Dimer in solution by static light scattering coupled to gel filtration; also called full-length RILPL2; source: E. coli, purified (Ni-agarose, gel filtration), polyhistidine tag not removed
- stoichiometry N [1]: 2

Continued, in another order:

- binding result [2]: binds
B2: globular tail domain (GTD) of myosin Va (1462-1853) (protein)
chain: VNIPRKEKDFQGMLEYKREDEQKLVKNLILELKPRGVAVNLIPGLPAYILFMCVRHADYLNDDQKVRSLLTSTINSIKKVLKKRGDDFETVSFWLSNTCRFLHCLKQYSGEEGFMKHNTSRQNEHCLTNFDLAEYRQVLSDLAIQIYQQLVRVLENILQPMIVSGMLEHETIQGVSGVKPTGLRKRTSSIADEGTYTLDSILRQLNSFHSVMCQHGMDPELIKQVVKQMFYIVGAITLNNLLLRKDMCSWSKGMQIRYNVSQLEEWLRDKNLMNSGAKETLEPLIQAAQLLQVKKKTDDDAEAICSMCNALTTAQIVKVLNLYTPVNEFEERVSVSFIRTIQMRLRDRKDSPQLLMDAKHIFPVTFPFNPSSLALETIQIPASLGLGFIARV

- Kd [3]: 3300 nM
B3: His6-RILPL2 residues 129-165 (phospho-Rab binding domain, minimal RH2 motif) (peptide, UniProt Q969X0 129-165, looked up)
chain: His6-NRPRFTLQELRDVLQERNKLKSQLLVVQEELQCYKSG
notes: Parallel α-helical dimer in the crystal; also called His6-RL2; source: synthetic peptide (Genscript); not shown: His6, N-terminal, kept
- stoichiometry N [4]: 2

Reference: publication PMC7139218, “Structural Basis for Rab8a Recruitment of RILPL2 via LRRK2 Phosphorylation of Switch 2” (Structure(London, England:1993), 2020)
